Laboratory results reported in US7094407B2, “Fusion peptide containing human type-1 collagen derived peptide, preparation thereof, and skin anti-aging cosmetic composition comprising the same” (LG Household & Health Care Ltd., priority 2002, dated 2006).

Assays:
[1] = Transdermal absorption (penetration into skin cells) test, Franz cell; format: in vitro ADME; conditions: nude mouse back skin 1.7 cm^2, 24 hours, HPLC and LC mass
Description: Penetration of a compound, agent, etc. into skin cells is commonly referred to as transdermal absorption, and this will be the term used herein. The transdermal absorption test was conducted using the fusion peptide prepared in Example 1 (Reference: Lehman P A, Slattery J T, Franz T J. Percutaneous absorption of retinoids: Influence of vehicle, light exposure, and dose, J. Invest Dermatol., 91; 56–61. 1998).
Specifically, skin on the back of a female nude mouse 8 weeks of age was cut to a specific depth and to an area of 1.7 cm^2, and the fusion peptide was applied thereto. After 24 hours, the receptor solution and material absorbed in the skin in the back of the mouse were extracted with a transdermal absorption measuring instrument (Franz cell), and quantitatively analyzed using high performance liquid chromatography (HPLC) and liquid chromatography mass (LC mass) techniques. That is, these techniques were used to measure the amount of the compound of Chemical Formula 1 of the present invention that underwent transdermal absorption. […] Example 5: Allergy Test of a Tat-human Type-I collagen DP fusion peptide (LLNA)(SEQ ID NO: 10)

human fibroblast = assay: Collagen synthesis effects test; format: cell-based; conditions: summary statement of test results
Description: In order to measure the usefulness of the Tat-human Type-collagen DP prepared in Example 1 as a skin anti-aging agent, it was tested by comparing the preparation with ascorbic acid, which is known to be a material having an exceptional collagen synthesis effect.
In this test, a human fibroblast of the same number was cultured on a 24-well plate for 24 hours, and the sample as a concentration of 10^−4 to 10^−7 was applied thereto. After 2 hours, proline introduced tridium was applied thereto and a resulting mixture was cultured for 24 hours. Next, an amount of collagen newly-synthesized and newly-secreted from fibroblast was measured a cpm (count per minute) of proline introduced tridium using a medium, and an amount of csp (collagenous sensitive protein) was calculated. A comparative measurement of the collagen synthesis effect was then performed (David F. W. and Wilson Harvey, Analytical Biochemistry (1979); 96, 220 224, Atsushi Hatamochi, Masashi Ono, Hiroaki Ueki, and Masayoshi Namba., J. Invest Dermatol. (1991) 96, 473 477).

V79-4 cells = assay: Cytotoxicity MTT test; format: cell-based, Chinese hamster
Description: In order to identify the safety of the compound of Chemical Formula 1 when used as a cosmetic raw material, V79–4 cells (Chinese hamster, continuous cell line of lung tissue fibroblast) were cultured and an MTT test was conducted to test cytotoxicity for the compound [Reference: Mossaman T. (1983). Rapid colorimetric assay for cellular growth & survival: application to proliferation & cytotoxicity assays. Journal of Immunological Methods 65, 55–63).

Balb/c mice = assay: Allergy test (LLNA, murine local lymph node assay); format: in vivo, mouse; conditions: 0.5% and 1.0% solutions in ethanol, 50 μl to both ears for 3 days, [3H]-methylthymidine; versus control
Description: An experiment using ethanol as a carrier was selected for a safety test of the compound of Chemical Formula 1 when used as a cosmetic raw material [Reference: Kimber (1990): Identification of contact allergens using the murinelocal lymph node assay, J. Appl. Toxicol. 10(3); 173–180]. A control that uses cosmetic material for an anti-aging agent and the compound of Chemical Formula 1 were prepared in 0.5% and 1.0% solutions. 50 μl of the solution was applied to both ears of Balb/c mice for 3 days, and then the auricular lymph nodes were removed from the mice. The lymph nodes were pulverized to a monocell state, and radioisotope [3H]-methylthymidine was added thereto, after which a resulting material was cultured for 24 hours. Subsequently, amplification of cells (dpm, disintegrations per minute) was measured using a β-scintillation counter (Beckman LS 6000 TA, USA).

[2] = system: wrinkles on the outer corners of the eyes (crow's-feet); assay: Anti-aging effects, O/W emulsion applied to crow's-feet of human subjects; format: in vivo; conditions: 29 women in their thirties, 3 months, one time each day
Description: In order to examine anti-aging effects of the Tat-human Type-collagen DP prepared in Example 1, an O/W emulsion comprising the compound of Chemical Formula 1 of the present invention and a control were each applied to human subjects. In particular, the O/W emulsion and control were coated on wrinkles on the outer corners of the eyes (i.e., crow's-feet) of 29 women in their thirties. Application was performed for 3 months, one time each day. Visual observation of anti-aging effects, if any, was performed and ranked according to a scale of four possibilities—no improvement, little improvement, medium improvement, and significant improvement.

guinea pigs = assay: Skin irritation patch test; format: in vivo, guinea pig; conditions: O/W emulsion, 48 hours closed patch
Description: In order to test skin irritation of the compound of Chemical Formula 1, a patch test using guinea pigs was conducted [Reference: Draize, J. H. (1959): Dermal toxicity. Assoc. Food and Drug Officials, US. Appraisal of the safety of chemicals in Food, Drugs, and Cosmetics., pp 46–59, Texas State Dept. of Health, Austin, Tex. Federal Register (1973): Method of testing primary irritant substances 38(187): pp 1500–1541]. The compound represented by Chemical Formula 1 was prepared in an O/W emulsion of various concentrations. Fur on the back of the guinea pigs where the sample was to be coated was removed, and the area was allowed to adapt to the surroundings for 24 hours in order to minimize skin irritation that may be caused by the removal of the fur.
Next, a sample coating region was established (1.5 cm×1.5 cm), a sample and gauze were applied thereto, and the coated region was sealed with a thin paper of solid material in order to prevent loss, after which the sealing material was held firmly in place with an elastic bandage. The guinea pigs were maintained in this state for 48 hours then all the applied materials were removed. At two different time periods of 2 hours and 24 hours after removal of the closed patch (50 hours and 72 hours after patch application), the degree of irritation was determined and indicated by an irritation index (P11: primary cutaneous irritation index) and by an irritation degree scale.

In the case of “KKKKKKKKKKTKS (Tat-human Type-I collagen DP fusion peptide)”, the transdermal absorption capability [1] is reported as “superior transdermal absorption capability”, the “synthesis of collagen and hyaluronic acid” value (human fibroblast) is reported as “superior synthesis of collagen and hyaluronic acid” and the “cytotoxicity (MTT)” value (V79-4 cells; concentration of 0.01 or less) is reported as “negligent level of toxicity”. The “cytotoxicity (MTT)” value (V79-4 cells; concentration of 0.1 (%, w.v) or more) was “very weak toxicity”, the “possibility of allergy induction” value (Balb/c mice) was “lower possibility of allergy induction than the control” and the “anti-aging effects on crow's-feet (visual observation)” value [2] was “exhibits anti-aging effects on crow's-feet”. The “Irritation Degree” value (guinea pigs; Concentration 0.01 %) was “Minute irritation”, the “Irritation Index (PII)” value (guinea pigs; Concentration 0.01 %) was 0.52 and the “Irritation Degree” value (guinea pigs; Concentration 0.1 %) was “Minute irritation”. The “Irritation Index (PII)” value (guinea pigs; Concentration 0.1 %) was 0.53, the “Irritation Degree” value (guinea pigs; Concentration 0.5 %) was “Minute irritation” and the “Irritation Index (PII)” value (guinea pigs; Concentration 0.5 %) was 0.53.
